1 molecule from patent US20140328850A1 (Amgen, published 2014) can be followed below.

By Kd is commonly meant a measure of binding affinity in units of concentration. Read a low Kd as tighter binding.

No end group written: not given here.

One experiment deals with apelin (UniProt Q9ULZ1 65-77, limits assumed). Kind of experiment: cell-based or functional assay.
The target of a further experiment is T1, apelin 12 (UniProt Q9ULZ1 66-77).
T1 construct: domain: apelin 12
T1 peptide (looked up): RPRLSHKGPMPF
Description: BIAcore solution equilibrium binding: Ab A pre-incubated with apelin 12, injected over immobilised biotin-labeled apelin; one-site homogeneous model. Here is the method:
Binding affinity of Ab A was determined using BIAcore solution equilibrium binding analysis. Briefly, biotin-labeled apelin was immobilized at high density on a neutravidin surface. Ab A was incubated with apelin 12 at RT for over 4 hours before injected over the immobilized surfaces. The dissociation equilibrium constant (Kd) was obtained from a nonlinear regression analysis of the competition curve using a one-site homogeneous binding model (KinExATM Pro software).
A general note: Surface plasmon resonance follows binding to a sensor surface in real time, without labels.

For the next experiment, the target named is T2, apelin 12-5 (also: biotinylated, position not given here).
T2 construct: also called peptide 14
T2 peptide: RPRLSHKG
Kind of experiment: ELISA: biotinylated peptide captured on neutravidin plate, antibody detected with HRP goat anti-mouse Fc, OD650; one point per peptide, antibody concentration not given. Here is the method:
(§1) The antibody binding site was mapped using an ELISA-based assay. Briefly, various biotinylated apelin peptides (SEQ ID NOs: 7-22) were captured onto neutravidin coated plates and incubated with apelin antibody. Bound antibody was detected with horseradish peroxidase-conjugated goat anti-mouse Fc in the presence of the chromogenic substrate. The absorbance was read at 650 nm. Ab A is believed to neutralize all active forms of apelin.

The target in another experiment is T3, pyro13 C-blot (N-terminal pGlu as printed; biotinylated; the sheet prints 'C-blot', meaning not explained).
T3 construct: also called peptide 3
T3 peptide: ERPRLSHKGPMPF
The experiment is described as above. Here is the method: as §1

Another experiment has as its target T4, apelin 12-2 (also: biotinylated, position not given here).
T4 construct: also called peptide 11
T4 peptide: RPRLSHKGPMP
Described as above. The method, then:
as §1

Another experiment concerns the target T5, F13A (also: biotinylated, position not given here).
T5 construct: apelin 13 with A in place of the C-terminal F; also called peptide 4
T5 peptide: QRPRLSHKGPMPA
Described as above. The method, then:
as §1

For a further experiment, the target named is T6, apelin 11 (also: biotinylated, position not given here).
T6 construct: also called peptide 6
T6 peptide: PRLSHKGPMPF
Described as above. The method, then:
as §1

Another experiment concerns the target T7, apelin 12-3 (also: biotinylated, position not given here).
T7 construct: also called peptide 12
T7 peptide: RPRLSHKGPM
The experiment is described as above. The method, then: as §1

The target of another experiment is T8, apelin 12-4 (also: biotinylated, position not given here).
T8 construct: also called peptide 13
T8 peptide: RPRLSHKGP
The description is as above. Here is the method:
as §1

B1: antibody A (Ab A) (antibody, V domains shown)
VH: NVQLVESGGGLVKPGGSLKLSCVASGFIFSDYVMSWVRQTPEKRLEWVATISDGGIYTSYPDNIKGRFTISRDNANNKLYLQMSHLRSEDTAMYFCSRAAITSDDFDFWGQGTALTVSS
VL: DIVMSQSPSSLAVSAGEKVTMSCKSSQSLLDSRTRKNYLAWYQQKPGQSPKLLISWASIRESGVPDRFTGSGSGTDFTLSISSVQAEDLAVYYCKQSYYLLTFGAGTKLELKR
notes: also called apelin antibody; apelin Ab
For B1, the “IC50: inhibition of the apelin-induced change of cAMP (HTRF ratio 665/620) in CHOK1-human APJ cells, 6 nM apelin, 500 nM forskolin” value with apelin worked out at 18.2 nM. This molecule displayed a dissociation constant (Kd) in the experiment with apelin 12 of 6 nM. Besides, the binding result with apelin 12-5, with pyro13 C-blot, in the experiment with apelin 12-2, in the experiment with F13A, with apelin 11 and with apelin 12-3 was “binds” in each case. In the experiment with apelin 12-4, the binding result is “binds”.
